For one substance, rolling parameter (RP), rolling parameter (RP) with UbV^RING and UbV^CDH1 added and rolling parameter (RP) with UbV^CDH1 added results are on record in publication PMC10643132.

Experiment [1] has as its target biotinylated Ub–CycB^N (AviTag–Ub–Cyclin B (1–88)–Cys–6xHis) (UniProt P0CG48). Description: METRIS (mechanically transduced immunosorbent assay); biotinylated APC/C (with or without CDH1) on streptavidin ferromagnetic beads rolling on streptavidin wells coated with biotinylated CycB^N, Ub–CycB^N or Ub; rotating field 1 Hz; rolling parameter (RP); relative measure; no UbV added.

In experiment [2] the target is biotin–CycB^N* (AviTag–Cyclin B (1–88)–Cys–6xHis, biotinylated, Alexa488-labeled) (UniProt P14635). The experiment is described as above.
Experiment [3] addresses biotinylated Ub (biotin maleimide on an N-terminal cysteine) (UniProt P0CG48). The description is as above.
Experiment [4] shares this target. Briefly: METRIS (mechanically transduced immunosorbent assay); as a7, surface of Ub, UbV^RING and UbV^CDH1 both added as competitors (concentrations not given).
In experiment [5] the target is biotinylated Ub–CycB^N (AviTag–Ub–Cyclin B (1–88)–Cys–6xHis) (UniProt P0CG48). Briefly: METRIS (mechanically transduced immunosorbent assay); as a7, surface of Ub–CycB^N, UbV^CDH1 added as competitor (concentration not stated).

Sequence of biotin–CycB^N* (AviTag–Cyclin B (1–88)–Cys–6xHis, biotinylated, Alexa488-labeled) (P14635 other isoform, or with tags, fused parts or gaps): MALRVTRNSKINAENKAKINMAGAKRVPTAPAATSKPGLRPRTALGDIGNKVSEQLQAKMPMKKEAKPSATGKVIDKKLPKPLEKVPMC

Consider “biotinylated APC/C^CDH1 (biotinylated APC/C with HaloTag, AviTag and Twin-Strep(II)-tag on APC4, incubated with CDH1 on the beads) (from UniProt Q9UJX6 1-822; P30260 1-824; Q9UJX5 1-808; Q9UJX3 1-565; Q9UJX2 1-595; Q9UM13 4-185; Q9NYG5 1-84; Q9UM11 1-496) (complex)”, for which the rolling parameter (RP) in experiment [1] was 0.21; in experiment [2], 0.15; in experiment [3], 0.17. This substance also had a rolling parameter (RP) with UbV^RING and UbV^CDH1 added in experiment [4] of 0.13. In experiment [5], this substance had a rolling parameter (RP) with UbV^CDH1 added of 0.19.
